Where “and” joins values, the source holds several entries; their conditions need not be identical. Identical values can stand only once.
What was measured:
[1] = target: Pk12-Fc (PKNH_1137300, ectodomain F24-S344, human IgG1 Fc fusion) (Plasmodium knowlesi); test: BLI; Gator system, anti-human IgG Fc (HFC) probes; Fc-tagged protein immobilised (10 µM, 120 s); His-tagged protein in serial dilution (1.5 to 100 µM by the methods; 1.5625-100 nM in the key of Fig. S3C), association 300 s, dissociation 600 s in PBS; 1:1 global fit; two experiments with different batches of protein
[2] = target: Pv12-Fc (PVX_113775, ectodomain F24-A339, human IgG1 Fc fusion) (Plasmodium vivax) (UniProt A5K1W7); test: as above
[3] = target: Pv41 full-length ectodomain, His-tagged (Plasmodium vivax); test: native gel or EMSA; blue native PAGE, 4%-16%, purified His-tagged recombinant protein, Coomassie stain
[4] = target: Pv12 full-length ectodomain, human IgG1-Fc-tagged (Plasmodium vivax); test: BLI; Gator system, anti-human IgG Fc (HFC) probes; Fc-tagged protein immobilised (10 uM, 120 s); His-tagged protein 1.5 to 100 uM, 300 s association, 600 s dissociation in PBS; 1:1 global fit
[5] = target: Pv12 full-length ectodomain, His-tagged (Plasmodium vivax); test: native gel or EMSA; blue native PAGE, 4%-16%, purified His-tagged recombinant protein, Coomassie stain
[6] = target: Pv41 full-length ectodomain, human IgG1-Fc-tagged (Plasmodium vivax); test: BLI; Gator system, anti-human IgG Fc (HFC) probes; Fc-tagged protein immobilised (10 uM, 120 s); His-tagged protein 1.5 to 100 uM, 300 s association, 600 s dissociation in PBS; 1:1 global fit
[7] = target: Pv41-Fc (PVX_000995, ectodomain E22-E384, human IgG1 Fc fusion) (Plasmodium vivax) (UniProt A5KAP6); test: BLI; Gator system, anti-human IgG Fc (HFC) probes; Fc-tagged protein immobilised (10 µM, 120 s); His-tagged protein in serial dilution (1.5 to 100 µM by the methods; 1.5625-100 nM in the key of Fig. S3C), association 300 s, dissociation 600 s in PBS; 1:1 global fit; two experiments with different batches of protein
[8] = target: T1, PvDBP-RII (194-521 aa.)-8His (Plasmodium vivax, UniProt P22290 194-521); test: as above; settings: both partners purified
T1 construct: also called PvDBPII-His; PvDBP-RII-His; source: HEK293-EBNA1 cells, transiently transfected, purified from culture supernatant (Ni-NTA); not shown: 8xHis, C-terminal, kept

[9] = target: T2, P. vivax Duffy-binding protein region II, His-tagged (194-521 aa) (Plasmodium vivax, UniProt P22290 194-521); test: BLI; Gator system, anti-human IgG Fc (HFC) probes; Fc-tagged protein immobilised (10 uM, 120 s); His-tagged protein 1.5 to 100 uM, 300 s association, 600 s dissociation in PBS; 1:1 global fit; settings: both partners purified
T2 construct: also called PvDBPII-His; PvDBP-RII-His; source: HEK293-EBNA1 (HEK293E), transiently transfected, purified from culture supernatant (Ni-NTA); not shown: 8xHis, C-terminal, kept

With “PvMP38-8His (PVX_110945, full-length ectodomain D28-K343) (domain or fragment)” the Kd [1] was 0.833 nM and 0.96 nM and the Kd [2] was 2.39 nM and 2.56 nM.

“Pv41 full-length ectodomain, His-tagged (domain or fragment)” gave a stoichiometry N [3] of 2 and a Kd [4] of 14.2 nM.

For “Pv41-8His (PVX_000995, ectodomain E22-E384) (from UniProt A5KAP6 22-384) (domain or fragment)”, the Kd [1] was 19 nM and 11.4 nM, the Kd [2] was 12.2 nM and 16.1 nM and the koff [2] was 0.000662 s⁻¹ and 0.000803 s⁻¹. The kon [2] was 54300 M⁻¹ s⁻¹ and 50000 M⁻¹ s⁻¹.

Work on “Pv12 full-length ectodomain, His-tagged (domain or fragment)” yielded a stoichiometry N [5] of 2 and a Kd [6] of 0.53 nM.

For “PvMP38 (PVX_110945), full-length ectodomain, His-tagged (domain or fragment)”, the Kd [4] was 2.46 nM.

For “Pk12-8His (PKNH_1137300, ectodomain F24-S344) (domain or fragment)”, the Kd [7] was 184 nM and 160 nM, the koff [7] was 0.0485 s⁻¹ and 0.0454 s⁻¹ and the kon [7] was 263000 M⁻¹ s⁻¹ and 284000 M⁻¹ s⁻¹.

“Pv12-8His (PVX_113775, ectodomain F24-A339) (from UniProt A5K1W7 24-339) (domain or fragment)” was tested, and the Kd [7] was 0.555 nM and 0.512 nM, the koff [7] was 0.000174 s⁻¹ and 0.000156 s⁻¹ and the kon [7] was 314000 M⁻¹ s⁻¹ and 305000 M⁻¹ s⁻¹.

B1: hDARC-Fc (human DARC M1-P63, human IgG1 Fc fusion) (Fc fusion, UniProt Q16570-1 1-63, looked up)
chain: MGNCLHRAELSPSTENSSQLDFEDVWNSSYGVNDSFPDGDYGANLEAAAPCHSCNLLDDSALP
notes: Duffy antigen/receptor for chemokines (DARC), human, NP_002027, region expressed M1-P63; also called human DARC-Fc; source: HEK293-EBNA1 cells, transiently transfected, purified from culture supernatant (HiTrap Protein G HP)
In the case of B1, the Kd [8] is reported as 3 nM and 2.39 nM.

B2: human DARC-Fc (1-63 aa) (Fc fusion, UniProt Q16570 1-63, looked up)
chain: MGNCLHRAELSPSTENSSQLDFEDVWNSSYGVNDSFPDGDYGANLEAAAPCHSCNLLDDSALP
notes: Duffy antigen/receptor for chemokines (DARC), human, residues 1-63; also called hDARC; source: HEK293-EBNA1 (HEK293E), transiently transfected, purified from culture supernatant (Protein G)
In the case of B2, the Kd [9] is reported as 2.7 ± 0.43 nM.

From article PMC12077092, “A novel micronemal protein MP38 is involved in the invasion of merozoites into erythrocytes” (mBio, 2025)
